Assay results: the supplement of paper PMC7877785
± gives the uncertainty stated by the source.

Experiment: self-splicing fitness, log relative to wild type (ln ratio); higher = more splicing; Tetrahymena group I intron in knt gene, E. coli kanamycin selection, DiMSum; sequences stand for … in CUCUCU…GGAGGGAAAAGUUAUCAGGCAUGCACCUGGUAGCUAGUCUUUAAACCAAUAGAUUGCAUCGGUUUAAAAGGCAAGACCGUCAAAUUGCGGGAAAGGGGUCAACAGCCGUUCAGUACCAAGUCUCAGGGGAAACUUUGAGAUGGCCUUGCAAAGGGUAUGGUAAUAAGCUGACGGACAUGGUCCUAACCACGCAGCCAAGUCCUAAGUCAACAGAUCUUCUGUUGAUAUGGAUGCAGUUCACAGACUAAAUGUCGGUCGGGGAAGAUGUAUUCUUCUCAUAAGAUAUAGUCGGACCUCUCCUUAAUGGGAGCUAGCGGAUGAAGUGAUGCAACACUGGAGCCGCUGGGAACUAAUUUGUAUGCGAAAGUAUAUUGAUUAGUUUUGGAGUACUCGUGGUCG
In short: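 The eight P1ex-region nucleotides of an intron in the knt kanamycin-resistance gene on pET-22b(+) were all randomised and the library put into E. coli BL21(DE3). Six replicate transformations were grown overnight at 37°C or 30°C on LB agar with or without 25 μg/mL kanamycin, together with 100 μg/mL carbenicillin, 50 μM IPTG and 0.2% rhamnose. Colonies were pooled and amplicon-sequenced on an Illumina HiSeq 2500. Fitness from DiMSum is the error-weighted combination of wild-type-normalised replicate fold changes, kanamycin over none.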

Sequence | self-splicing fitness (ln) (30 °C) | self-splicing fitness (ln) (37 °C)
GCUGAGCAAUAUUACGUGAA | -2.63 ± 0.22 | -1.35 ± 0.23
GCUGAGCAAUAUUACGUUAA | -3.04 ± 0.34 | -2.78 ± 0.32
GCUGAGCAAUAUUACGUUCA | -3.45 ± 0.28 | -1.81 ± 0.2
GCUUAGCAAUAUUACGACCC | -0.525 ± 0.22 | -0.569 ± 0.38
GCUUAGCAAUAUUACGACGA | -0.927 ± 0.16 | -0.516 ± 0.13
GCUUAGCAAUAUUACGACUC | -0.244 ± 0.15 | 0.619 ± 0.18
GCUUAGCAAUAUUACGAGAA | -1.2 ± 0.27 | -0.264 ± 0.22
GCUUAGCAAUAUUACGAGAC | -2.64 ± 0.22 | -1.54 ± 0.18
GCUUAGCAAUAUUACGAUCA | -1.1 ± 0.14 | -0.788 ± 0.16
GCUUAGCAAUAUUACGAUUU | -0.0141 ± 0.091 | -0.234 ± 0.12
GCUUAGCAAUAUUACGCGGC | -2.35 ± 0.29 | -2.19 ± 0.37
GCUUAGCAAUAUUACGCUAA | -2.91 ± 0.21 | -3.01 ± 0.26
GCUUAGCAAUAUUACGCUAC | – | -3.24 ± 0.28
GCUUAGCAAUAUUACGCUAU | -2.31 ± 0.16 | -1.38 ± 0.16
GCUUAGCAAUAUUACGCUUG | -2.53 ± 0.27 | -1.74 ± 0.36
GCUUAGCAAUAUUACGCUUU | -1.23 ± 0.064 | -0.413 ± 0.084
GCUUAGCAAUAUUACGGAAU | -1.15 ± 0.062 | 0.0941 ± 0.077
GCUUAGCAAUAUUACGGACG | -1.15 ± 0.13 | 0.122 ± 0.18
GCUUAGCAAUAUUACGGCUU | -0.91 ± 0.089 | -0.586 ± 0.11
GCUUAGCAAUAUUACGGGAC | -1.78 ± 0.18 | -1.19 ± 0.2
GCUUAGCAAUAUUACGUACA | -1.38 ± 0.13 | -0.577 ± 0.14
GCUUAGCAAUAUUACGUCCU | -1.01 ± 0.12 | -0.274 ± 0.15
GCUUAGCAAUAUUACGUCGC | -1.72 ± 0.19 | -0.764 ± 0.28
GCUUAGCAAUAUUACGUGAU | -0.4 ± 0.065 | -0.482 ± 0.068
GGAAAGCAAUAUUACGAACA | -1.34 ± 0.15 | -0.362 ± 0.15

Sequence | self-splicing fitness (ln) (30 °C) | self-splicing fitness (ln) (37 °C)
GGAAAGCAAUAUUACGAACG | -0.51 ± 0.1 | -0.441 ± 0.12
GGAAAGCAAUAUUACGACCG | -0.761 ± 0.12 | -0.184 ± 0.17
GGAAAGCAAUAUUACGAGAC | -3.69 ± 0.17 | -1.96 ± 0.11
GGAAAGCAAUAUUACGAGUA | -2.38 ± 0.22 | -0.9 ± 0.19
GGAAAGCAAUAUUACGAUUU | -0.238 ± 0.081 | 0.189 ± 0.1
GGAAAGCAAUAUUACGCAAU | -2.27 ± 0.45 | -0.77 ± 0.32
GGAAAGCAAUAUUACGCAUC | -2.7 ± 0.17 | -2.49 ± 0.31
GGAAAGCAAUAUUACGCAUG | -1.24 ± 0.084 | -0.813 ± 0.11
GGAAAGCAAUAUUACGCCCU | -1.16 ± 0.21 | -1.25 ± 0.21
GGAAAGCAAUAUUACGCCGG | – | -2.24 ± 0.37
GGAAAGCAAUAUUACGCGAC | -2.95 ± 0.24 | -1.73 ± 0.25
GGAAAGCAAUAUUACGCUUC | -2.84 ± 0.3 | –
GGAAAGCAAUAUUACGGAAC | -3.58 ± 0.43 | –
GGAAAGCAAUAUUACGGGAU | -2.64 ± 0.17 | -1.1 ± 0.14
GGAAAGCAAUAUUACGGUAC | -0.689 ± 0.13 | -1.36 ± 0.19
GGAAAGCAAUAUUACGUAAG | -1.87 ± 0.13 | -1.18 ± 0.15
GGAAAGCAAUAUUACGUAGU | -2.97 ± 0.11 | -1.23 ± 0.088
GGAAAGCAAUAUUACGUCAA | -1.7 ± 0.19 | -0.985 ± 0.18
GGAAAGCAAUAUUACGUCCG | -0.651 ± 0.23 | -0.324 ± 0.21
GGAAAGCAAUAUUACGUUAA | -3.35 ± 0.16 | -1.84 ± 0.15
GGAAAGCAAUAUUACGUUAC | -2.63 ± 0.16 | -0.204 ± 0.11
GGAAAGCAAUAUUACGUUAU | -2.24 ± 0.09 | -1.16 ± 0.12
GGACAGCAAUAUUACGACAC | -0.596 ± 0.1 | 0.167 ± 0.13
GGACAGCAAUAUUACGAGAC | -2.05 ± 0.33 | -1.1 ± 0.16
GGACAGCAAUAUUACGCCAU | -1.98 ± 0.26 | -2.03 ± 0.46

Sequence | self-splicing fitness (ln) (30 °C) | self-splicing fitness (ln) (37 °C)
GGACAGCAAUAUUACGCGAC | -2.27 ± 0.28 | -1.09 ± 0.24
GGACAGCAAUAUUACGGAAG | -2.62 ± 0.13 | -1.36 ± 0.14
GGACAGCAAUAUUACGGAGC | -0.749 ± 0.089 | -0.621 ± 0.09
GGACAGCAAUAUUACGGUGC | -1.58 ± 0.094 | -0.8 ± 0.11
GGACAGCAAUAUUACGUCCC | -3.31 ± 0.4 | –
GGACAGCAAUAUUACGUCGA | 0.00434 ± 0.082 | 0.755 ± 0.12
GGACAGCAAUAUUACGUCUU | -3.29 ± 0.091 | -1.9 ± 0.099
GGACAGCAAUAUUACGUUCC | -2.58 ± 0.3 | -2.84 ± 0.45
GGAGAGCAAUAUUACGAACC | -2.16 ± 0.43 | –
GGAGAGCAAUAUUACGACAC | -0.961 ± 0.28 | 0.238 ± 0.22
GGAGAGCAAUAUUACGCAUG | – | -0.0425 ± 0.28
GGAGAGCAAUAUUACGCCUA | -2.28 ± 0.32 | -2.48 ± 0.34
GGAGAGCAAUAUUACGCGAC | -2.83 ± 0.21 | -2.22 ± 0.34
GGAGAGCAAUAUUACGCUGA | -2.98 ± 0.19 | -1.36 ± 0.24
GGAGAGCAAUAUUACGGCUG | -2.1 ± 0.21 | -0.692 ± 0.21
GGAGAGCAAUAUUACGUCAU | -2.38 ± 0.31 | -2.61 ± 0.33
GGAGAGCAAUAUUACGUGAU | -3.33 ± 0.24 | -1.75 ± 0.31
GGAGAGCAAUAUUACGUGCA | -1.92 ± 0.29 | -2.03 ± 0.32
GGAGAGCAAUAUUACGUGGU | -3.28 ± 0.16 | -3.01 ± 0.26
GGAGAGCAAUAUUACGUGUA | -2.77 ± 0.29 | -3.17 ± 0.33
GGAGAGCAAUAUUACGUUUA | -3.83 ± 0.33 | -2.03 ± 0.17
GGAUAGCAAUAUUACGAAAU | -1.09 ± 0.12 | -0.476 ± 0.12
GGAUAGCAAUAUUACGACAU | -0.425 ± 0.014 | -0.0181 ± 0.034
GGAUAGCAAUAUUACGACUU | 0.215 ± 0.18 | 0.847 ± 0.17
GGAUAGCAAUAUUACGAUAU | -0.868 ± 0.14 | -0.583 ± 0.19

Sequence | self-splicing fitness (ln) (30 °C) | self-splicing fitness (ln) (37 °C)
GGAUAGCAAUAUUACGAUGG | -1.27 ± 0.38 | –
GGAUAGCAAUAUUACGAUUC | -2.52 ± 0.15 | -0.731 ± 0.16
GGAUAGCAAUAUUACGCCGU | -1.74 ± 0.25 | -0.441 ± 0.2
GGAUAGCAAUAUUACGCGGA | -2.65 ± 0.43 | -1.57 ± 0.31
GGAUAGCAAUAUUACGCGUG | -1.49 ± 0.087 | -0.118 ± 0.08
GGAUAGCAAUAUUACGCUCG | -0.451 ± 0.24 | -0.208 ± 0.35
GGAUAGCAAUAUUACGCUGA | -1.13 ± 0.13 | -1.19 ± 0.14
GGAUAGCAAUAUUACGGAAC | -1.9 ± 0.22 | -2.03 ± 0.29
GGAUAGCAAUAUUACGGACA | -1.68 ± 0.16 | -0.273 ± 0.16
GGAUAGCAAUAUUACGGAGC | -3.05 ± 0.26 | -2.51 ± 0.25
GGAUAGCAAUAUUACGGCCG | -0.857 ± 0.18 | 0.103 ± 0.2
GGAUAGCAAUAUUACGGGAG | – | -2.52 ± 0.21
GGAUAGCAAUAUUACGGGCU | -2.29 ± 0.14 | -0.442 ± 0.12
GGAUAGCAAUAUUACGGUGC | -1.85 ± 0.48 | -2.5 ± 0.49
GGAUAGCAAUAUUACGUUAA | -2.35 ± 0.16 | -1.9 ± 0.16
GGCAAGCAAUAUUACGAAAA | -0.934 ± 0.1 | -1.41 ± 0.15
GGCAAGCAAUAUUACGAACA | -2.07 ± 0.24 | -0.92 ± 0.18
GGCAAGCAAUAUUACGAAGC | -1.69 ± 0.27 | -0.628 ± 0.47
GGCAAGCAAUAUUACGAAGU | -1.94 ± 0.093 | -1.89 ± 0.12
GGCAAGCAAUAUUACGAAUG | -2.14 ± 0.15 | -1.45 ± 0.16
GGCAAGCAAUAUUACGACAC | -0.649 ± 0.15 | 0.129 ± 0.28
GGCAAGCAAUAUUACGACGU | -0.0263 ± 0.086 | 0.872 ± 0.12
GGCAAGCAAUAUUACGAUAA | -1.23 ± 0.11 | 0.298 ± 0.13
